Data from patent publication US20230374147A1 (HUMMINGBIRD BIOSCIENCE PTE, published 2023).
Changes are numbered by the printed parent chain. Like-named read-outs stand apart in the source and are kept apart here.

Experiments:
[1] = biological target: T1, His-tagged cynomolgous macaque BCMA (Acro Biosystems, BCA-C52H7) (cynomolgus macaque, UniProt Q02223 1-54 (human entry)); assay: BLI, His-tagged cynomolgus BCMA on HIS1K tip; R2 0.9022
T1 construct: Bought protein; also called cyno BCMA; CyBCMA; not shown: His tag

[2] = biological target: T2, human BCMA expressed on cells (human, UniProt Q02223 1-184); assay: flow cytometry, H929 cells (BCMA-expressing)
T2 construct: the cell line is named under assay; also called wildtype human BCMA
T2 sequence: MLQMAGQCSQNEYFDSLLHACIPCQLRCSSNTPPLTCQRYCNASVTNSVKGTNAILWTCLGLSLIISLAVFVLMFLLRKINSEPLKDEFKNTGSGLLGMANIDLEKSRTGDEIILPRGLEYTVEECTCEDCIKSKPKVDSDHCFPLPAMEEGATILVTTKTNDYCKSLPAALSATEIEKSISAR

[3] = biological target: T3, recombinant his-tagged human TACI (Sinobiological cat #11937-H08H) (human, UniProt O14836 1-165); assay: ELISA, coated His-tagged human TACI
T3 construct: Bought protein; also called Human TACI-His; huTACI; not shown: His tag
T3 sequence: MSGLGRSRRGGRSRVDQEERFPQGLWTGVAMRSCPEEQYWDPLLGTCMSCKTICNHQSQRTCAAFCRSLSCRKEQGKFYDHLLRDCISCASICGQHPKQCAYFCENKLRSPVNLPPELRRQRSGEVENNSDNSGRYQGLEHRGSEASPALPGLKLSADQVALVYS

[4] = biological target: T4, His-tagged human BCMA (Acro Biosystems, Cat. #BCA-H522y) (human, UniProt Q02223 1-54); assay: BLI, His-tagged human BCMA on HIS1K tip
T4 construct: also called huBCMA; P1; not shown: His tag
T4 sequence: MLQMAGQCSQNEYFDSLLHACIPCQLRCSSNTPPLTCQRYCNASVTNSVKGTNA

[5] = biological target: T2, human BCMA expressed on cells; assay: flow cytometry, HEK 293 cells expressing human BCMA
[6] = biological target: T2, human BCMA expressed on cells; assay: flow cytometry, H929 cells (BCMA-expressing); remark: listed apart in the source
[7] = biological target: T4, His-tagged human BCMA (Acro Biosystems, …); assay: BLI, His-tagged human BCMA on HIS1K tip, no APRIL; R2 0.9919
[8] = biological target: T5, His-tagged mouse BCMA (Acro Biosystems, BCA-M52H3) (mouse, UniProt O88472 1-49); assay: BLI, His-tagged mouse BCMA on HIS1K tip; R2 0.9686
T5 construct: Bought protein; not shown: His tag
T5 chain: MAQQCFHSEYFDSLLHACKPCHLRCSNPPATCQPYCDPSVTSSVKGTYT

[9] = biological target: T6, human TACI expressed on cells (human, UniProt O14836 1-293); assay: flow cytometry, HEK 293 cells expressing human TACI
T6 construct: also called wildtype human TACI
T6 sequence: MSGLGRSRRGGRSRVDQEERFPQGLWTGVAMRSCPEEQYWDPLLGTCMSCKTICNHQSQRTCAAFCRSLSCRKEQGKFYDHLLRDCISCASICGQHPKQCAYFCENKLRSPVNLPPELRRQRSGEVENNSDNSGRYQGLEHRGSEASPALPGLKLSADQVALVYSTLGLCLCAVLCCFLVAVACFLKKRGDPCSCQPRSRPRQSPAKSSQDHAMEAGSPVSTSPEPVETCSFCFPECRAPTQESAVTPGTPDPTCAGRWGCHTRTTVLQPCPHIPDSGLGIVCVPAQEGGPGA

[10] = biological target: T4, His-tagged human BCMA (Acro Biosystems, …); assay: ELISA, coated His-tagged human BCMA
[11] = biological target: T1, His-tagged cynomolgous macaque BCMA …; assay: BLI, His-tagged cynomolgus BCMA on HIS1K tip
[12] = biological target: T5, His-tagged mouse BCMA (Acro Biosystems, …); assay: BLI, His-tagged mouse BCMA on HIS1K tip
[13] = biological target: T2, human BCMA expressed on cells; assay: flow cytometry, HEK293 cells stably expressing human BCMA
[14] = biological target: T7, cynomolgous macaque BCMA expressed on CHOK1 cells; assay: flow cytometry, CHOK1 cells transiently expressing cynomolgus BCMA
T7 construct: also called cyno BCMA on cells

[15] = biological target: T4, His-tagged human BCMA (Acro Biosystems, …); assay: competition ELISA: His-tagged human BCMA binding to coated APRIL-Fc in the presence of the antibody
[16] = biological target: T4, His-tagged human BCMA (Acro Biosystems, …); assay: BLI, His-tagged human BCMA on HIS1K tip; R2 0.9919
[17] = biological target: T3, recombinant his-tagged human TACI …; assay: ELISA, coated His-tagged human TACI; remark: listed apart in the source
[18] = biological target: T4, His-tagged human BCMA (Acro Biosystems, …); assay: ELISA, coated His-tagged human BCMA; remark: listed apart in the source
BCMA Mut = biological target: T8, BCMA Mut (human, UniProt Q02223 1-184); assay: flow cytometry on HEK293T cells expressing BCMA Mut
T8 construct: Expressed on HEK293T cells; also called human BCMA comprising the substitutions Y13A, D15A, L17G and L18G
T8 chain: T2 sequence with Y13A, D15A, L17G, L18G

[19] = biological target: T1, His-tagged cynomolgous macaque BCMA …; assay: BLI, His-tagged cynomolgus BCMA on HIS1K tip; R2 0.9915
[20] = biological target: T4, His-tagged human BCMA (Acro Biosystems, …); assay: BLI, His-tagged human BCMA on HIS1K tip; R2 0.9915
[21] = biological target: T4, His-tagged human BCMA (Acro Biosystems, …); assay: BLI, His-tagged human BCMA on HIS1K tip, no APRIL; R2 0.9915
[22] = biological target: T5, His-tagged mouse BCMA (Acro Biosystems, …); assay: BLI, His-tagged mouse BCMA on HIS1K tip; R2 0.9403
[23] = biological target: T1, His-tagged cynomolgous macaque BCMA …; assay: BLI, His-tagged cynomolgus BCMA on HIS1K tip; R2 0.9205
[24] = biological target: T7, cynomolgous macaque BCMA expressed on …; assay: flow cytometry, CHOK1 cells transiently expressing cynomolgus BCMA; remark: listed apart in the source
[25] = biological target: T2, human BCMA expressed on cells; assay: flow cytometry, HEK293 cells stably expressing human BCMA; remark: listed apart in the source
[26] = biological target: T5, His-tagged mouse BCMA (Acro Biosystems, …); assay: BLI, His-tagged mouse BCMA on HIS1K tip; R2 0.2621, below the filing's cut-off of 0.9
[27] = biological target: T4, His-tagged human BCMA (Acro Biosystems, …); assay: BLI, His-tagged human BCMA on HIS1K tip, no APRIL; R2 0.9903
[28] = biological target: T3, recombinant his-tagged human TACI …; assay: ELISA, coated His-tagged human TACI; remark: listed apart in the source
[29] = biological target: T4, His-tagged human BCMA (Acro Biosystems, …); assay: BLI, His-tagged human BCMA on HIS1K tip; R2 0.9903

B1: 538-SP5-B10 hIgG1 (antibody, V domains shown)
VH: EVQLQQSGPELVKPGASVKMSCKASGYTFTSYVMHWVKQKPGRGLEWIAYILPFNDVTKYNEKFKGKATLTSDKSSNTAYMELSSLTSEDSAVYYCARWEWDDGYFDYWGQGTTLTVSS
VL: DAVMTQTPLSLPVSLGDQASISCRSSQSLENSNGNTYLNWYLQKPGQSPQLLIYRVSNRFSGVLDRFSGSGSGTDFTLKISRVEAEDLGVYFCLQVSHVPFTFGAGTKLELKR
notes: Human-mouse chimeric antibody, human IgG1 format
B1 was tested, and the Kd [1] was 31.4 nM, the “EC50 (read off the curve)” value [2] was ~1 nM and the EC50 [3] was 2.53 nM. The “Human BCMA response” value [4] was 2.35, the EC50 [5] was 0.21 nM and the “EC50 (read off the curve)” value [6] was ~0.03 mg/L. For the same binder, the Kd [7] was < 0.001 nM, the Kd [8] was 47.5 nM and the EC50 [9] was 24.1 nM. The EC50 [10] was 0.085 nM, the “Cyno BCMA response” value [11] was 0.895 and the “Mouse BCMA response” value [12] was 1.31. The “EC50 (read off the curve)” value [13] was ~0.03 mg/L, the binding result [14] was “binds” and the IC50 [15] was 0.39 nM. The Kd [16] was < 0.001 nM, the “EC50 (read off the curve)” value [17] was ~0.4 mg/L and the “EC50 (read off the curve)” value [18] was ~0.01 mg/L. B1: no binding (BCMA Mut).

B2: 539-SP1-C8 hIgG1 (antibody, V domains shown)
VH: EVQLQQSGPELVKPGSSVKMSCKASGYTFTNYVMHWVKQKPGQGLEWIGYILPYNDGTKYNEKFKGKATLTSDKSSSTAYMEFSVLTSEDSAVYYCARYDYEGSFDYWGQGTALTVSS
VL: DIQMTQTTSSLSASLGDRVTISCRASQDISNYLNWYQQKPDGTVKLLMCYTSRLHSGVPSRFSGSGSGTDFSLTISNLEQEDIATYFCQQGNTFPPTFGGGTKLEIKR
notes: Human-mouse chimeric antibody, human IgG1 format; also called [2]
B2 was tested, and the “EC50 (read off the curve)” value [2] was ~1 nM, the EC50 [3] was 0.083 nM and the “Human BCMA response” value [4] was 2.46. The EC50 [5] was 2.56 nM, the “EC50 (read off the curve)” value [6] was ~0.02 mg/L and the EC50 [9] was 8.2 nM. For the same binder, the EC50 [10] was 0.059 nM, the “Cyno BCMA response” value [11] was 0.456 and the “Mouse BCMA response” value [12] was 0.86. For the same binder, the “EC50 (read off the curve)” value [13] was ~0.4 mg/L, the Kd [19] was 14.7 nM and the binding result [14] was “binds”. For the same binder, the Kd [20] was < 0.001 nM, the IC50 [15] was 1.17 nM and the “EC50 (read off the curve)” value [17] was ~0.01 mg/L. The Kd [21] was < 0.001 nM, the “EC50 (read off the curve)” value [18] was ~0.009 mg/L and the binding result (BCMA Mut) was “no binding”. The Kd [22] was 29.5 nM.

B3: 539-SP7-F4 hIgG1 (antibody, V domains shown)
VH: EVQLQQSGPELVKPGASMKISCKASGYSFTGYIMNWVKQSHGKNLEWIGLINPYNGDSIYNQKFKGKATLTVDKSSSTAYMELFSLTSEDSTVYYCAAGEEFAYWGQGTLVTVSA
VL: DIQMTQTSSSLSASLGDRVTISCRASQDISIYLNWFQQKPDGTVKLLIYFTSRLHPGVPSRFSASGSGTDYSLTISHLEHEDIATYFCQQGNTLPRTFGGGTKVELKR
notes: as for B1
In the case of B3, the Kd [23] is reported as 34.1 nM, the binding result [24] is reported as “binds” and the “Human BCMA response” value [4] is reported as 2.61. For the same binder, the “EC50 (read off the curve)” value [25] was ~0.05 mg/L, the Kd [26] was 8.97 nM and the “EC50 (read off the curve)” value [6] was ~0.04 mg/L. For the same binder, the “Cyno BCMA response” value [11] was 1.36, the “Mouse BCMA response” value [12] was 0.371 and the Kd [27] was < 0.001 nM. The binding result [28] was “no binding (tested: 10 ug/ml)” and the Kd [29] was < 0.001 nM.
